According to patent US20110118131A1 (published 2011):
Numbering of substitutions follows the chain as printed. Names and notes keep the numbering of the source.

Target: T1, IL-1β (UniProt P01584 117-269)
T1 construct: Antigen of XPA23
Test: Biacore, Fab periplasmic extract

B1: XPA23 heavy chain T58P (Fab, V domains shown)
VH: EVQLLESGGGLVQPGGSLRLSCAASGFTFSKYFMFWVRQAPGKGLEWVSVISPSGGMPRYADSVKGRFTISRDNSKNTLYLQMNSLRAEDTAVYYCARVGYGGNSDYWGQGTLVTVSS
VL: DIQMTQSPSSVSASVGDRLTIICRASQDINRWLAWYQQTPGNAPKLLIHSATSLQSGVPSRFSGSGSGTDFTLTINSLQPEDFATYYCQQADSFPLTFGGGTKVEIK
notes: Fab, periplasmic extract; also called C5A T58P
  fold difference in affinity against the original: 1.81 fold

B2: XPA23 heavy chain Y107A (Fab, V domains shown)
VH: B1 VH with P58T, Y107A
VL: B1 VL
notes: Fab, periplasmic extract; also called C5A Y107A
  fold difference in affinity against the original: 0.83 fold

B3: XPA23 heavy chain V50I (Fab, V domains shown)
VH: B1 VH with V50I, P58T
VL: B1 VL
notes: Fab, periplasmic extract; also called C5A V50I
  fold difference in affinity against the original: 0.1 fold

B4: XPA23 heavy chain Y32V (Fab, V domains shown)
VH: B1 VH with Y32V, P58T
VL: B1 VL
notes: Fab, periplasmic extract; also called C5A Y32V
  fold difference in affinity against the original: 1.07 fold

B5: XPA23 heavy chain Y107P (Fab, V domains shown)
VH: B1 VH with P58T, Y107P
VL: B1 VL
notes: Fab, periplasmic extract; also called C5A Y107P
  fold difference in affinity against the original: 0.04 fold

B6: XPA23 heavy chain V50T (Fab, V domains shown)
VH: B1 VH with V50T, P58T
VL: B1 VL
notes: Fab, periplasmic extract; also called C5A V50T
  fold difference in affinity against the original: 0.03 fold

B7: XPA23 heavy chain T58V (Fab, V domains shown)
VH: B1 VH with P58V
VL: B1 VL
notes: Fab, periplasmic extract; also called C5A T58V
  fold difference in affinity against the original: 0.99 fold

B8: XPA23 heavy chain Y32P (Fab, V domains shown)
VH: B1 VH with Y32P, P58T
VL: B1 VL
notes: Fab, periplasmic extract; also called C5A Y32P
  fold difference in affinity against the original: 0.68 fold

B9: XPA23 heavy chain Y32L (Fab, V domains shown)
VH: B1 VH with Y32L, P58T
VL: B1 VL
notes: Fab, periplasmic extract; also called C5A Y32L
  fold difference in affinity against the original: 0.75 fold

B10: XPA23 heavy chain Y101T (Fab, V domains shown)
VH: B1 VH with P58T, Y101T
VL: B1 VL
notes: Fab, periplasmic extract; also called C5A Y101T
  fold difference in affinity against the original: 0.06 fold

B11: XPA23 heavy chain Y32T (Fab, V domains shown)
VH: B1 VH with Y32T, P58T
VL: B1 VL
notes: Fab, periplasmic extract; also called C5A Y32T
  fold difference in affinity against the original: 0.8 fold

B12: XPA23 heavy chain V50A (Fab, V domains shown)
VH: B1 VH with V50A, P58T
VL: B1 VL
notes: Fab, periplasmic extract; also called C5A V50A
  fold difference in affinity against the original: 0.09 fold

B13: XPA23 heavy chain V50G (Fab, V domains shown)
VH: B1 VH with V50G, P58T
VL: B1 VL
notes: Fab, periplasmic extract; also called C5A V50G
  fold difference in affinity against the original: 0.03 fold

B14: XPA23 heavy chain Y107G (Fab, V domains shown)
VH: B1 VH with P58T, Y107G
VL: B1 VL
notes: Fab, periplasmic extract; also called C5A Y107G
  fold difference in affinity against the original: 0.1 fold

B15: XPA23 heavy chain Y101P (Fab, V domains shown)
VH: B1 VH with P58T, Y101P
VL: B1 VL
notes: Fab, periplasmic extract; also called C5A Y101P
  fold difference in affinity against the original: 0.04 fold

B16: XPA23 heavy chain Y107V (Fab, V domains shown)
VH: B1 VH with P58T, Y107V
VL: B1 VL
notes: Fab, periplasmic extract; also called C5A Y107V
  fold difference in affinity against the original: 0.93 fold

B17: XPA23 heavy chain V99T (Fab, V domains shown)
VH: B1 VH with P58T, V99T
VL: B1 VL
notes: Fab, periplasmic extract; also called C5A V99T
  fold difference in affinity against the original: 0.1 fold

B18: XPA23 heavy chain Y107L (Fab, V domains shown)
VH: B1 VH with P58T, Y107L
VL: B1 VL
notes: Fab, periplasmic extract; also called C5A Y107L
  fold difference in affinity against the original: 0.86 fold

B19: XPA23 heavy chain Y107I (Fab, V domains shown)
VH: B1 VH with P58T, Y107I
VL: B1 VL
notes: Fab, periplasmic extract; also called C5A Y107I
  fold difference in affinity against the original: 0.96 fold

B20: XPA23 heavy chain Y101I (Fab, V domains shown)
VH: B1 VH with P58T, Y101I
VL: B1 VL
notes: Fab, periplasmic extract; also called C5A Y101I
  fold difference in affinity against the original: 0.83 fold

B21: XPA23 heavy chain V99A (Fab, V domains shown)
VH: B1 VH with P58T, V99A
VL: B1 VL
notes: Fab, periplasmic extract; also called C5A V99A
  fold difference in affinity against the original: 0.03 fold

B22: XPA23 heavy chain Y101V (Fab, V domains shown)
VH: B1 VH with P58T, Y101V
VL: B1 VL
notes: Fab, periplasmic extract; also called C5A Y101V
  fold difference in affinity against the original: 0.09 fold

B23: XPA23 heavy chain Y101A (Fab, V domains shown)
VH: B1 VH with P58T, Y101A
VL: B1 VL
notes: Fab, periplasmic extract; also called C5A Y101A
  fold difference in affinity against the original: 0.04 fold

B24: XPA23 heavy chain Y107T (Fab, V domains shown)
VH: B1 VH with P58T, Y107T
VL: B1 VL
notes: Fab, periplasmic extract; also called C5A Y107T
  fold difference in affinity against the original: 0.83 fold

B25: XPA23 heavy chain Y101L (Fab, V domains shown)
VH: B1 VH with P58T, Y101L
VL: B1 VL
notes: Fab, periplasmic extract; also called C5A Y101L
  fold difference in affinity against the original: 1.91 fold

B26: XPA23 heavy chain Y32G (Fab, V domains shown)
VH: B1 VH with Y32G, P58T
VL: B1 VL
notes: Fab, periplasmic extract; also called C5A Y32G
  fold difference in affinity against the original: 1 fold

B27: XPA23 heavy chain V50L (Fab, V domains shown)
VH: B1 VH with V50L, P58T
VL: B1 VL
notes: Fab, periplasmic extract; also called C5A V50L
  fold difference in affinity against the original: 0.09 fold
